Test system: free histones (mixture of H1, H3, H2B, H2A and H4; Boehringer Mannheim)

Sequence of GST-EZH2(382-747) (chain, as listed by the source): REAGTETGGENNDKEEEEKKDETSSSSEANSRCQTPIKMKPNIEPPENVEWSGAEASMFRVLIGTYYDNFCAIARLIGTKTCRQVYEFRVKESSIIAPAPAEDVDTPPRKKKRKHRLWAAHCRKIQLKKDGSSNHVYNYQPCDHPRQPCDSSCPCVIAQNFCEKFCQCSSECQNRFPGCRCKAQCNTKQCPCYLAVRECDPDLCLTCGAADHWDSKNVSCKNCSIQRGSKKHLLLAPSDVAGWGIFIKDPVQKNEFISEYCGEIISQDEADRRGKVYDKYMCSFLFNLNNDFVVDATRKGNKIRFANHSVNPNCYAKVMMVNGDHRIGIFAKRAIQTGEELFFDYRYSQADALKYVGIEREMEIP

Row | Substance | HMTase activity
1 | GST-EZH2(382-747) | had undetectable HMTase activity towards free histones
2 | GST-HRX(3643-3969) | had undetectable HMTase activity towards free histones
3 | GST-Suv39h2(157-477) | The SU(VAR)3-9 family members assayed, SUV39H1, Suv39h2 and CLR4, displayed HMTase activity.

Reference: US20020039776
